Experiment [1] deals with T1, rhPSMA, extracellular part of human PSMA (residues 44-750) with its native N-terminus (human, UniProt Q04609 44-750, N-glycosylated (made in Schneider S2 insect cells)).
T1 construct: range 44-750; No tag; also called wild-type rhPSMA; rhGCPII
Description: ELISA, rhPSMA coated on MaxiSorp plate, Anticalin dilution series. From the text:
(§1) FIG. 4: Anticalin affinities towards PSMA as determined by ELISA and BIAcore measurements. Binding activities of Anticalins selected from the original naïve library (A) or resulting from subsequent affinity maturation of the A3 variant (B) were compared in an ELISA. A 96-well MaxiSorp plate was coated with rhPSMA (or ovalbumin as a negative control, not shown) and purified Anticalin variants were applied in dilution series. Anticalin binding was detected using StrepTactin/AP conjugate, followed by chromogenic reaction. Absorption was plotted against the Anticalin concentration and data were analyzed by curve fitting. Binding curves for the best performing clones A3 and A3A5 are shown as solid lines. (C-E) SPR sensograms measured for Anticalins A3, A3A5 and A3A5.1 on a BIAcore 2000 instrument. Approximately 500 RU of rhPSMA was immobilized on a CM5 sensor chip by amine coupling. […]
(§2) 50 μL of rhPSMA (5 μg/mL in TBS) was directly adsorbed onto the surface of a MaxiSorp 96-well plate overnight at 4° C. […] The plates were washed three times and bound Anticalins were detected with StrepTactin-AP as described further above. The data were analyzed using Prism 5 software (GraphPad) and absorption values (A) were fitted according to the formula ΔA=Aₘₐₓ·[Lₜₒₜ]/(KD+[Lₜₒₜ]) with the concentration of the applied lipocalin variant [Lₜₒₜ] and the dissociation constant KD.
(In general: In an ELISA, binding on a coated surface is turned into a signal by an enzyme label.)

Experiment [2] concerns the target T2, ovalbumin (UniProt P01012 2-386).
T2 sequence (looked up): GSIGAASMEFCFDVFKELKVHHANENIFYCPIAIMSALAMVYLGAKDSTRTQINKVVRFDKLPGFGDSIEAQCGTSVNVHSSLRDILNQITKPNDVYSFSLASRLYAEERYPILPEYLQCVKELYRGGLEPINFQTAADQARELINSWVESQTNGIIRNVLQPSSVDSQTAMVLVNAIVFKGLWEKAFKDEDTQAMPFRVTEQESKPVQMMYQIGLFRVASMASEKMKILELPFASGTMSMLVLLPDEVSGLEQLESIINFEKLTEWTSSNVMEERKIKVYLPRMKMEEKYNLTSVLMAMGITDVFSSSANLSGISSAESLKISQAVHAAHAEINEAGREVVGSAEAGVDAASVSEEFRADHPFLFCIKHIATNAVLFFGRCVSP
In words: ELISA, ovalbumin-coated wells. From the text: (§3) Enriched lipocalin variants from phage display were subjected to ELISA screening after subcloning of the central BstXI gene cassette on pNGAL98, which also encodes the N-terminal OmpA signal sequence directing the expressed protein into the bacterial periplasm and a C-terminal Strep-tag II for purification (Schmidt, T. G. & Skerra, A. [2007] Nat. Protoc. 2:1528-1535). After transformation of E. coli TG1-F- (Kim, H. J. et al. [2009] J. Am. Chem. Soc. 131:3565-3576) with the ligation mixture, randomly picked colonies were inoculated in a 96-well plate filled with 100 μL of Terrific broth (TB) media supplemented with 100 μg/mL ampicillin per well. Anticalin expression was induced at an optical density of OD₅₅₀=0.3-0.5 by addition of 20 μL TB/Amp containing 1.2 μg/mL anhydrotetracycline (aTc; ACROS Organics, 233131000) overnight at 20° C. The periplasmic extract was prepared as previously described²¹ and applied to 96-well MaxiSorp plates (Nunc, 442404) coated with rhPSMA (5 μg/mL in TBS) and blocked with BSA. Ovalbumin (10 μg/mL in TBS) served as non-related control protein in parallel. After 1 h incubation at room temperature, plates were washed three times with PBS/T and bound lipocalin variants were detected by means of their C-terminal Strep-tag II using StrepTactin conjugated to alkaline phosphatase (IBA, 2-1503-001), diluted 1:5,000 in PBS, for 1 h. Signals were developed by hydrolysis of 0.5 mg/mL p-nitrophenyl phosphate in 0.1 M NaCl, 5 mM MgCl₂, 0.1 M Tris/HCl, pH 8.8, and monitored via absorbance measurement at 405 nm with an Infinite 200 PRO microplate reader (Tecan).
Individual colonies were used for micro-scale expression in a 96-well plate and crude E. coli lysates from these cultures were screened in an ELISA for Anticalins having PSMA-binding activity. To this end, MaxiSorp plates coated with glycosylated rhPSMA were used as a target, whereas ovalbumin-coated wells were used as negative control to assess non-specific binding. Bound Anticalins were detected via the C-terminal Strep-tag II.

For experiment [3], the target named is T1, rhPSMA, extracellular part of human …. Description: ELISA, rhPSMA coated on MaxiSorp plate, Anticalin dilution series, detection by StrepTactin/AP.
Excerpt: as §1, §2

For experiment [4] the target is unchanged. In words: SPR (BIAcore 2000), rhPSMA amine-coupled to CM5 chip, Anticalin as analyte. On the procedure: Anticalin binding was detected using StrepTactin/AP conjugate, followed by chromogenic reaction. Absorption was plotted against the Anticalin concentration and data were analyzed by curve fitting. Binding curves for the best performing clones A3 and A3A5 are shown as solid lines. (C-E) SPR sensograms measured for Anticalins A3, A3A5 and A3A5.1 on a BIAcore 2000 instrument. Approximately 500 RU of rhPSMA was immobilized on a CM5 sensor chip by amine coupling. A dilution series from 64 to 2 nM of the purified Anticalin in HBS was applied and the resulting curves were fitted according to a Langmuir 1:1 binding model. (F) Comparison of parameters from real-time SPR analysis for Anticalins investigated in C-E, together with A3A5.7, in a kₒₙ/koff plot.
(§4) Surface plasmon resonance (SPR) spectroscopy was performed on a BIAcore 2000 instrument (BIAcore) following published procedures (Gebauer, M. et al. [2013] J. Mol. Biol. 425:780-802; De Crescenzo, G. et al. [2008] J. Mol. Recognit. 21:256-266). rhPSMA (1 nM in 10 mM Na-acetate pH 5.0) was immobilized on a CM5 sensor chip (BIAcore) using an amine coupling kit (GE Healthcare, BR100050), resulting in around 500 resonance units (ΔRU). The purified Anticalins were diluted in HEPES buffered saline (HBS; 10 mM HEPES/NaOH, 150 mM NaCl, pH 7.4) with 0.005% v/v Tween 20 to concentrations from 64-2 nM. The instrument was operated using the same running buffer at a flow rate of 25 μL/min. […] Regeneration of the sensor chip was achieved by up to four injections of 10 μL glycine/HCl, pH 2.0. The sensorgrams were corrected by double subtraction of the corresponding signals measured for the in-line control blank channel and an averaged baseline determined from three buffer blank injections³¹. Kinetic parameters were determined by data fitting using a 1:1 Langmuir binding model with BIAevaluation software version 4.1 (BIAcore).
To precisely determine kinetic and thermodynamic binding constants of the PSMA-specific Anticalin A3 and its variants, surface plasmon resonance (SPR) real-time analyses was performed on a BIAcore 2000 instrument. To this end, rhPSMA was chemically coupled to the carboxymethyl dextran matrix of a sensorchip using amine chemistry and a concentrations series of each Anticalin was applied.
On the technique in general: SPR reads the build-up and loss of mass on a sensor chip optically.

Experiment [5] has the same target. In words: SPR (BIAcore), rhPSMA on chip, Anticalin as analyte. Here is the method:
as §4
Several combinations of mutations occurring in the PSMA-specific Lcn2 variants A3A5.1 (carrying 5 new mutations) and A3A5.7 (carrying 4 new mutations) were prepared in order to investigate the relevance of the mutations that were found during affinity maturation for improved PSMA binding with the aim to create a combined Anticalin variant suitable for further protein engineering studies. A first combination, containing solely the mutations located in the loop regions of the Anticalins, was carried out by introducing the following mutations into the sequence of A3A5 (see SEQ ID NO:2): (i) a Y at position 71 as also present in A3A5.1, (ii) an N at position 74 as also present in A3A5.7, (iii) a D at position 103 as also present in A3A5.1. This triple substitution variant, termed A3A5.8, was obtained by gene synthesis, cloned and subsequently expressed (as described in Example 1).

For experiment [6] the target is unchanged. In words: ELISA, rhPSMA coated on MaxiSorp plate.
Excerpt: as §3, with “The periplasmic extract was prepared as previously described²¹ and applied to 96-well MaxiSorp plates (Nunc, 442404) coated with rhPSMA (5 μg/mL in TBS) and blocked with BSA. Ovalbumin (10 μg/mL in TBS) served as non-related control protein in parallel.” left out, “(Tecan). […]” for “(Tecan).”

T1 sequence (Q04609 44-750 limits assumed): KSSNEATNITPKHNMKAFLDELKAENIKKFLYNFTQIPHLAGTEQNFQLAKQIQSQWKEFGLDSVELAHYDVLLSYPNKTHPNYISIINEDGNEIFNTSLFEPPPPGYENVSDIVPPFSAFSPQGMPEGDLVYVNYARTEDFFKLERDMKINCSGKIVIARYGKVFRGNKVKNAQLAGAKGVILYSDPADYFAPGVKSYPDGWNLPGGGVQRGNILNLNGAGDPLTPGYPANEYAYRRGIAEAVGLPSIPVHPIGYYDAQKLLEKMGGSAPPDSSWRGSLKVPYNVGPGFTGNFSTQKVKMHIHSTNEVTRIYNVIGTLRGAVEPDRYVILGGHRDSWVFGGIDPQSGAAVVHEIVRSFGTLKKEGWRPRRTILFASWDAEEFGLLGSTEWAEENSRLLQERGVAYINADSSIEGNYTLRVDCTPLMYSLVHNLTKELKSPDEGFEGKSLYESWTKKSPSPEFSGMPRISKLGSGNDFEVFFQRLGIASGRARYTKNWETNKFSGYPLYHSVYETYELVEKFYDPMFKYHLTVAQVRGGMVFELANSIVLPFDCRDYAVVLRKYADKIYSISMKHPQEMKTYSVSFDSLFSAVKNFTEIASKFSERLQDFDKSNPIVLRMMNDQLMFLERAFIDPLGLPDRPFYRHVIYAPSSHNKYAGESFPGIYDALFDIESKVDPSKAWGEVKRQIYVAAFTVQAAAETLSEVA

B1: Anticalin A3 (designed binder)
chain: QDSTSDLIPAPPLSKVPLQQNFQDNQFHGKWYVVGLAGNMILREDKDPYKMSATIYELKEDKSYNVTNVRFYLKKCYYTIATFVPGSQPGEFTLGTIKSGPGKTSGLVRVVSTNYNQHAMVFFKEVQQNREWFIITLYGRTKELTSELKENFIRFSKSLGLPENHIVFPVPIDQCIDG
notes: Lcn2-derived lipocalin variant, monomeric, made by periplasmic secretion in E. coli from pNGAL98 with a C-terminal Strep-tag II; also called variant A3; not shown: C-terminal Strep-tag II
As to B1, in experiment [1], the Kd (in general, the equilibrium constant for the complex coming apart) worked out at 5.8 nM. The binding result in experiment [2] is on record as “no binding”. The same molecule yielded a Kd in experiment [3] of 6 nM. Further, in experiment [4], the Kd stood at 4.8 nM, the koff (usually the first-order rate constant of dissociation) is 0.00058 s⁻¹ and the kon (usually the second-order rate constant of association) was 120000 M⁻¹ s⁻¹.

B2: Anticalin A3A5.7 (designed binder)
chain: QDSTSDLIPAPPLSKVPLQQNFQDNQFHGKWYVVGLAGNVILREDKDPYKMSATIYELKEDKSYNVTNVRFYLNKCYYTIATFVPGSRPGEFTLGTIKSGPGKTSGLVRVVSTNYSQHAMVFFKEVQQNREWFIITLYGRTKELTSKLKENFIRFSKSLGLPENHIVFPVPIDQCIDG
notes: Soluble form as in SPR; also called variant A3A5.7; not shown: C-terminal Strep-tag II
For the molecule B2, in experiment [4], binding was characterised by a dissociation constant (Kd) of 0.54 nM, the koff was 0.00014 s⁻¹ and the kon was 270000 M⁻¹ s⁻¹.

B3: Anticalin A3A5.1 (designed binder)
chain: QDSTSDLIPAPPLSKVPLQQNFQDNQFHGKWYVVGLAGNVILREDKDPYKMSATIYELNEDKSYNVTNVRYYLKKCYYTIATFVPGSQPGEYTLGTIKSGPGDTSGLVRVVSTNYNQHAMVFFKEVQQNREWFIITLYGRTKELTSKLKENFIRFSKSLGLPENHIVFPVPIDQCIDG
notes: Soluble form as in SPR; also called variant A3A5.1; not shown: C-terminal Strep-tag II
For the molecule B3, in experiment [4], the Kd amounted to 0.66 nM, the koff turned out to be 0.00014 s⁻¹ and the kon amounted to 210000 M⁻¹ s⁻¹.

B4: Anticalin A3A5.9 (designed binder)
chain: QDSTSDLIPAPPLSKVPLQQNFQDNQFHGKWYVVGLAGNVILREDKDPYKMSATIYELKEDKSYNVTNVRYYLNKCYYTIATFVPGSQPGEFTLGTIKSGPGDTSGLVRVVSTNYNQHAMVFFKEVQQNREWFIITLYGRTKELTSKLKENFIRFSKSLGLPENHIVFPVPIDQCIDG
notes: A3A5.8 with K for E at position 147; also called variant A3A5.9; not shown: C-terminal Strep-tag II
B4: in experiment [5], the Kd was 0.74 nM, the koff is 0.00016 s⁻¹ and the kon was determined as 220000 M⁻¹ s⁻¹.

B5: Anticalin candidate H5 (designed binder)
chain: QDSTSDLIPAPPLSKVPLQQNFQDNQFHGKWYVVGTAGNWPLREDKDPHKMSATIYELKEDKSYNVTNVQFSSKKCLYFIGTFVPGSQPGEFTLGPIKSAPGQTSGLVRVVSTNYNQHAMVFFKQVIQNREAFIITLYGRTKELTSELKENFIRFSKSLGLPENHIVFPVPIDQCIDG
notes: not shown: C-terminal Strep-tag II
As to B5, the binding result is “no binding” in experiment [2] and “binds” in experiment [6].

B6: Anticalin candidate A2 (designed binder)
chain: QDSTSDLIPAPPLSKVPLQQNFQDNQFHGKWYVVGRAGNKPLREDKDPLKMWATIYELKEDKSYNVTIVWFDFKKCWYRISTFVPGSQPGEFTLGRIKSAPGVTSGLVRVVSTNYNQHAMVFFKYVFQNREWFHITLYGRTKELTSELKENFIRFSKSLGLPENHIVFPVPIDQCIDG
notes: as for B5
Take B6: the binding result in experiment [2] is reported as “no binding”; in experiment [6] it was “binds”.
